Results published in doi:10.1101/2022.02.27.481910 (bioRxiv, 2022).

Legend:
KaiC-AA (S431A, T432A) = KaiC-AA (S431A, T432A) (UniProt Q79PF4); assay: cryo-EM structure
cryo-EM structure = molecular target: the molecule itself; assay: cryo-EM structure

Molecule | stoichiometry N (KaiC-AA (S431A, T432A)) | stoichiometry N (cryo-EM structure)
KaiC-AA (S431A, T432A) (from UniProt Q79PF4 14-484) (enzyme) | 6 | –
KaiC-EE (S431E, T432E) (enzyme) EHQAIAKMRTMIEGFDDISHGGLPIGRSTLVSGTSGTGKTLFSIQFLYNGIIEFDEPGVFVTFEETPQDIIKNARSFGWDLAKLVDEGKLFILDASPDPEGQEVVGGFDLSALIERINYAIQKYRARRVSIDSVTSVFQQYDASSVVRRELFRLVARLKQIGATTVMTTERIEEYGPIARYGVEEFVSDNVVILRNVLEGERRRRTLEILKLRGTSHMKGEYPFTITDHGINIFPLGAMRLTQRSSNVRVSSGVVRLDEMCGGGFFKDSIILATGATGTGKTLLVSRFVENACANKERAILFAYEESRAQLLRNAYSWGMDFEEMERQNLLKIVCAYPESAGLEDHLQIIKSEINDFKPARIAIDSLSALARGVSNNAFRQFVIGVTGYAKQEEITGLFTNTSDQFMGAHSITDSHIEEITDTIILLQYVEIRGEMSRAINVFKMRGSWHDKAIREFMISDKGPDIKDSFRNFERIISGSPTRI | – | 6
